Results on one substance are retold here after patent US20090246142A1, “Triggered Self-Assembly of Nanoparticles In Vivo” (MASSACHUSETTS INSTITUTE OF TECHNOLOGY, priority 2006, published 2009).

The target in this assay is TAMRA-C(Ahx)QpYDHPNI-CONH2 (CRK SH2-binding phosphopeptide) on nanoparticles (pY-peptide TSACs). Description: DLS of nanoparticle assembly, 12 nM TSACs, both partners polyvalent on particles.

With “Crk SH2 domain with an N-terminal cysteine (cys-SH2), conjugated to iron oxide nanoparticles (SH2 TSACs) (from UniProt P46108 13-118)”, the hydrodynamic radius increase turned out to be 10 fold.
